The text below walks through data of patent US7193044B1, “Compounds and methods for regulating apoptosis, and methods of making and screening for compounds that regulate apoptosis” (Immunogen, Inc., priority 2000, dated 2007).

“Also recorded” adds a separate entry of the source.

One assay concerns HeLa cells. Kind of assay: Fluorescence-based beta-galactosidase assay of BAD-induced cell death in transfected HeLa cells. More on the design: species or system human. The settings on record: SFM vs SFM+EGF, 12 hours. The method, then: FIG. 12(B) is a graphic representation of the results of a β-galactosidase assay. HeLa cells were co-transfected with the β-galactosidase gene and either HA-BAD (“WT”), HA-BAD S155A (“S155A”), HA-BAD S112A/S136A (“S112A/S136A”) or HA-BAD S112A/S136A/S155A (“AAA”). Transfected cells were then cultured in serum-free medium (SFM) or SFM supplemented with EGF (SFM+EGF) for 12 hours. Cell lysates were prepared and BAD-induced cell death was measured by the loss of β-galactosidase activity in a fluorescence-based assay. Fluorescence was measured at 465 nm. Results shown are the average and standard deviation of triplicate transfections (this experiment was repeated two more times with similar results). Expression levels of HA-tagged BAD and BAD mutants in transfected cell lysates were detected by anti-HA western blot analysis: HA-BAD (“WT”), HA-BAD S155A (“A”), HA-BAD S112A/S136A (“AA”), and HA-BAD S112A/S136A/S155A (“AAA”).
FIG. 12(C) is a graphic representation of the results of a β-galactosidase assay. HeLa cells were co-transfected with the β-galactosidase gene and either an empty vector (“CTL”), wild-type BAD (“WT”), the BAD S155A mutant (“S155A”) or the BAD S155D mutant (“S155D”). Cell lysates were prepared and BAD-induced cell death was measured by the loss of β-galactosidase activity in a fluorescence-based assay. Fluorescence was measured at 465 nm. Results shown are the average and standard deviation of triplicate transfections (this experiment was repeated two more times with similar results).
HeLa cells were co-transfected with the β-galactosidase gene and either wild-type BAD, BAD S155A, BAD S112A/S136A or BAD S112A/S136A/S155A. […] Cell lysates were prepared and BAD-induced cell death was measured by the loss of β-galactosidase activity in a fluorescence-based assay. […]
To measure β-gal activity, HeLa cells were plated in 12-well plates at 5×10^4 cells/well one day prior to transfection. […] Beta-gal activity was measured in extracts using a fluorogenic substrate (MUG, BIO-RAD FluorAce™ β-gal Reporter Assay, #170–3150). […]

The subject of assay [1] is BAD phosphorylation in COS-7 cells. Kind of assay: BAD phosphorylation in COS-7 cells (western blot band-shift). The assay is classed as cell-based. Conditions: anti-HA western blot, listed as HA-BAD S112A/S136A. The source says: Mouse FL5.12 cells were then transfected with the expression vector encoding the shorter murine BAD of SEQ ID NO:3 or one of the three BAD mutants. Total mRNA was isolated from the transfected FL5.12 cells, and reverse transcribed into cDNA. The cDNA was then subcloned into the expression vector pcDNA3 so that the amino acid sequence of the BAD or mutant BAD, encoded by the subcloned cDNA, was in-frame and operably linked to an N-terminal hemagglutinin (“HA”) epitope encoded by the expression vector. The expression vectors encoding the HA-tagged shorter murine BAD and mutant BAD were expressed in COS-7 cells. Whole cell lysates (“WCL”) were then prepared from the COS-7 cells expressing the polypeptides. The phosphorylation of the shorter murine BAD of SEQ ID NO:3 and mutant BAD were detected by a western blot of the WCL, probed with an anti-HA antibody (“anti-HA antibody”). […] Of note, each of the BAD mutants resolved as a doublet on a 16% SDS-PAGE, even though in the amino acid sequence of each of the BAD mutants one or both of the serines corresponding to Ser112 and Ser136 were mutated, i.e., substituted with alanine. […]
On the technique in general: In western blotting, separated proteins are transferred to a membrane and probed.

The target of the next assay is GST-Bcl-XL (Homo sapiens, UniProt Q07817). Kind of assay: GST-Bcl-XL binding (glutathione bead pull-down) of BAD. Conditions: whole cell lysate of COS-7 cells, glutathione bead precipitation, anti-HA blot. The protocol: In order to test whether the additional and novel phosphorylation site on BAD has functional significance, the effect on BAD binding to Bcl-XL was examined. Recombinant Bcl-XL tagged with the glutathione S-transferase (“GST”) moiety (“GST-Bcl-XL”) was incubated with WCL prepared from COS-7 cells expressing the double mutant HA-BAD S112A/S136A, and the HA-BAD S112A/S136A that bound to the GST-Bcl-XL was precipitated with GST beads. […] No HA-BAD S112A/S136A was precipitated with GST beads from the WCL that were not incubated with GST-Bcl-XL (FIG. 1, lane 4).
The ability of full-length BAD and mutant BAD S155A to bind Bcl-XL was also determined (FIG. 3(c)). Full-length BAD (“WT”) and mutant BAD S155A (“S155A”) were produced by in vitro translation and labeled with ^35S-methionine therein. […] Proteins bound to the beads (“Bound”) (lower panel) and samples of the reactions collected prior to incubation with the beads (“Total”) (upper panel) were analyzed by SDS-PAGE followed by autoradiography.
For Bcl-XL binding studies, GST-Bcl-XL (1 mg/ml final concentration) was added to cell lysates derived from BAD expressing cells, and incubated with rotation for two hours at 4° C. […] The beads were then washed with RIPA buffer, the proteins were separated by SDS-PAGE and associated BAD detected by probing the blot with anti-HA antibody.

Chain of GST-Bcl-XL (Q07817 whole entry): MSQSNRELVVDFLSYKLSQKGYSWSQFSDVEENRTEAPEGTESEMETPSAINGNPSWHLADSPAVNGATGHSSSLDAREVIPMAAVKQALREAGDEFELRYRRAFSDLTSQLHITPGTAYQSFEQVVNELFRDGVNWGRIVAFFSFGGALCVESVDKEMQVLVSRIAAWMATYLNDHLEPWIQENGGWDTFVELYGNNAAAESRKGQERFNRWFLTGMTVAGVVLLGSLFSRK

B1: BAD S112A/S136A: mutant of shorter murine BAD, serines corresponding to Ser112 and Ser136 substituted with alanine (protein)
chain: MFQIPEFEPSEQEDASATDRGLGPSLTEDQPGPYLAPGLLGSNIHQQGRAATNSHHGGAGAMETRSRHSAYPAGTEEDEGMEEELSPFRGRSRAAPPNLWAAQRYGRELRRMSDEFEGSFKGLPRPKSAGTATQMRQSAGWTRIIQSWWDRNLGKGGSTPSQ
modifications: left off: small tags and cut ends
notes: mutant of shorter murine BAD, serines corresponding to Ser112 and Ser136 substituted with alanine
Consider B1, for which the “effect of EGF stimulation on pro-apoptotic activity of the BAD mutant” value in the assay with HeLa cells is “also suppressed by EGF stimulation”. Besides, the “phosphorylation of expressed BAD mutant (lambda phosphatase-sensitive higher molecular weight band)” value in assay [1] is “phosphatase treatment completely eliminated the higher molecular weight band of the doublet; also recorded: do not eliminate the phosphorylation of BAD”. In the assay with GST-Bcl-XL, the “binding to GST-Bcl-XL” value was “only the lower molecular weight band of the doublet was detected”.
